In the data set the target is T1, eEF1α (GST fusion) (rat) (UniProt P62630).
T1 sequence: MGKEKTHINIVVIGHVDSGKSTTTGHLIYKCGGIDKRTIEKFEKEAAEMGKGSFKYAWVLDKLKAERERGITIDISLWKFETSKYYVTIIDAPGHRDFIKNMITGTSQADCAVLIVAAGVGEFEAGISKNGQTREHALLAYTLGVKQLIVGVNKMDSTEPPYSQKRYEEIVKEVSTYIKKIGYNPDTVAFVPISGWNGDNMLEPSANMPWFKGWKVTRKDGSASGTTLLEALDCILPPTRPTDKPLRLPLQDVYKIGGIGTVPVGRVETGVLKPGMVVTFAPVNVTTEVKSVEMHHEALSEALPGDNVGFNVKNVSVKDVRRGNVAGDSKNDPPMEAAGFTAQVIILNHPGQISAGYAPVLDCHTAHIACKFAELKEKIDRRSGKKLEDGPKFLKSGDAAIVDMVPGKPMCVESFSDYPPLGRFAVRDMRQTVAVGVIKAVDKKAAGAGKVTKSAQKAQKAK
Put plainly: EMSA. The conditions noted are these: EMSA: 40 mM NaCl, 5 mM MgCl2, 30 mM Tris-HCl pH 7.6, 2 mM DTT, protease inhibitors, 22 °C 15 min, then RNase T1 (described for CHO extract); 12 fmol RNA in …. Background: A gel shift assay detects complexes by their altered migration in electrophoresis.

This is an account of results in paper PMC2719692.

For “GGAGUGACGAACAGUGCUGCUGCCCUCAGGUGUAAAUAAUUUCCGGACCAACUCAGAGUCUUGCCGUACACCUCCACCCAGUUUACUAAACCCCGUUUUCUACCGAGCAUGUG [MT-111 (MT-1 3′UTR nt 1-111)]”, the binding entry is recorded as “binds”.
